Source: patent publication US20220024981A1 (Novartis, published 2022)
Bridge positions count the residues as written; N and C are the ends. Square brackets hold non-standard residues; d marks the D form. Bip = N[C@@H](Cc1ccc(-c2ccccc2)cc1)C(=O)O; Phe(4-Cl) = N[C@@H](Cc1ccc(Cl)cc1)C(=O)O; hSer = N[C@@H](CCO)C(=O)O; NMeA = CN[C@@H](C)C(=O)O

B1: Ac*-F-V-HomoSer-T-T-F-(N-Me)A-(p-Cl)F-(N-Me)A-D-A-P-C*-NH2 (peptide)
peptide: {CH2CO}-FV[hSer]TTF[NMeA][Phe(4-Cl)][NMeA]DAPC-NH2
modifications: thioether N-13
SMILES: CC(C)[C@@H]1NC(=O)[C@H](Cc2ccccc2)NC(=O)CSC[C@@H](C(N)=O)NC(=O)[C@@H]2CCCN2C(=O)[C@H](C)NC(=O)[C@H](CC(=O)O)NC(=O)[C@H](C)N(C)C(=O)[C@H](Cc2ccc(Cl)cc2)NC(=O)[C@H](C)N(C)C(=O)[C@H](Cc2ccccc2)NC(=O)[C@H]([C@@H](C)O)NC(=O)[C@H]([C@@H](C)O)NC(=O)[C@H](CCO)NC1=O
notes: also called 2-3; Ex. No. 2-3
B2: Ac*-F-V-P-T-T-B-(N-Me)A-B-(N-Me)A-E-A-P-C*-NHEt (peptide)
peptide: {CH2CO}-FVPTT[Bip][NMeA][Bip][NMeA]EAPC-NHEt
modifications: thioether N-13
notes: also called 3-3; Ex. No. 3-3
B3: Ac*-F-V-P-T-T-B-(N-Me)A-B-(N-Me)A-A-A-P-C*-NHEt (peptide)
peptide: {CH2CO}-FVPTT[Bip][NMeA][Bip][NMeA]AAPC-NHEt
modifications: thioether N-13
SMILES: CCNC(=O)[C@@H]1CSCC(=O)N[C@@H](Cc2ccccc2)C(=O)N[C@@H](C(C)C)C(=O)N2CCC[C@H]2C(=O)N[C@@H]([C@@H](C)O)C(=O)N[C@@H]([C@@H](C)O)C(=O)N[C@@H](Cc2ccc(-c3ccccc3)cc2)C(=O)N(C)[C@@H](C)C(=O)N[C@@H](Cc2ccc(-c3ccccc3)cc2)C(=O)N(C)[C@@H](C)C(=O)N[C@@H](C)C(=O)N[C@@H](C)C(=O)N2CCC[C@H]2C(=O)N1
notes: also called 3-4; Ex. No. 3-4
B4: Ac*-F-V-A-T-T-F-(N-Me)A-(p-Cl)F-(N-Me)A-N-A-P-C*-NH2 (peptide)
peptide: {CH2CO}-FVATTF[NMeA][Phe(4-Cl)][NMeA]NAPC-NH2
modifications: thioether N-13
SMILES: CC(C)[C@@H]1NC(=O)[C@H](Cc2ccccc2)NC(=O)CSC[C@@H](C(N)=O)NC(=O)[C@@H]2CCCN2C(=O)[C@H](C)NC(=O)[C@H](CC(N)=O)NC(=O)[C@H](C)N(C)C(=O)[C@H](Cc2ccc(Cl)cc2)NC(=O)[C@H](C)N(C)C(=O)[C@H](Cc2ccccc2)NC(=O)[C@H]([C@@H](C)O)NC(=O)[C@H]([C@@H](C)O)NC(=O)[C@H](C)NC1=O
notes: also called 2-5; Ex. No. 2-5
B5: Ac*-F-V-S-T-T-B-(N-Me)A-B-(N-Me)A-D-R-P-C*-NH2 (peptide)
peptide: {CH2CO}-FVSTT[Bip][NMeA][Bip][NMeA]DRPC-NH2
modifications: thioether N-13
SMILES: CC(C)[C@@H]1NC(=O)[C@H](Cc2ccccc2)NC(=O)CSC[C@@H](C(N)=O)NC(=O)[C@@H]2CCCN2C(=O)[C@H](CCCNC(=N)N)NC(=O)[C@H](CC(=O)O)NC(=O)[C@H](C)N(C)C(=O)[C@H](Cc2ccc(-c3ccccc3)cc2)NC(=O)[C@H](C)N(C)C(=O)[C@H](Cc2ccc(-c3ccccc3)cc2)NC(=O)[C@H]([C@@H](C)O)NC(=O)[C@H]([C@@H](C)O)NC(=O)[C@H](CO)NC1=O
notes: also called 2-4; Ex. No. 2-4
B6: Ac*-F-V-P-T-T-V-(N-Me)A-(p-Cl)F-(N-Me)A-E-A-P-C*-NH2 (peptide)
peptide: {CH2CO}-FVPTTV[NMeA][Phe(4-Cl)][NMeA]EAPC-NH2
modifications: thioether N-13
SMILES: CC(C)[C@@H]1NC(=O)[C@H]([C@@H](C)O)NC(=O)[C@H]([C@@H](C)O)NC(=O)[C@@H]2CCCN2C(=O)[C@H](C(C)C)NC(=O)[C@H](Cc2ccccc2)NC(=O)CSC[C@@H](C(N)=O)NC(=O)[C@@H]2CCCN2C(=O)[C@H](C)NC(=O)[C@H](CCC(=O)O)NC(=O)[C@H](C)N(C)C(=O)[C@H](Cc2ccc(Cl)cc2)NC(=O)[C@H](C)N(C)C1=O
notes: also called 2-6; Ex. No. 2-6

target: T1, Human PCSK9 Alexa Fluor 647 (human, UniProt Q8NBP7 31-692, limits assumed, Alexa Fluor 647 label (site not stated)); test: TR-FRET competition: PCSK9-Alexa Fluor 647 vs LDLR ECD-Eu kryptate
T1 construct: Labelled tracer of the TR-FRET assay, 16 nM stock; also called proprotein convertase subtilisin/kexin type 9
Method: A Proxi plate-low volume assay plate was used for the assay. […] Following a 30 minute incubation, 5 uL of 4 nM Human LDLR extracellular domain-Europium Kryptate was added and the mixture was incubated for an additional 2 hours.
The TR-FRET signal was measured on an EnVision or PheraStar instrument with a 60 μs delay, 330 nm excitation and 665 nm emission (FRET), and 330 nm excitation and 615 nm (Europium). The FRET ratio (FRET/Europium) was used for calculations.

T1 sequence (Q8NBP7 31-692 limits assumed): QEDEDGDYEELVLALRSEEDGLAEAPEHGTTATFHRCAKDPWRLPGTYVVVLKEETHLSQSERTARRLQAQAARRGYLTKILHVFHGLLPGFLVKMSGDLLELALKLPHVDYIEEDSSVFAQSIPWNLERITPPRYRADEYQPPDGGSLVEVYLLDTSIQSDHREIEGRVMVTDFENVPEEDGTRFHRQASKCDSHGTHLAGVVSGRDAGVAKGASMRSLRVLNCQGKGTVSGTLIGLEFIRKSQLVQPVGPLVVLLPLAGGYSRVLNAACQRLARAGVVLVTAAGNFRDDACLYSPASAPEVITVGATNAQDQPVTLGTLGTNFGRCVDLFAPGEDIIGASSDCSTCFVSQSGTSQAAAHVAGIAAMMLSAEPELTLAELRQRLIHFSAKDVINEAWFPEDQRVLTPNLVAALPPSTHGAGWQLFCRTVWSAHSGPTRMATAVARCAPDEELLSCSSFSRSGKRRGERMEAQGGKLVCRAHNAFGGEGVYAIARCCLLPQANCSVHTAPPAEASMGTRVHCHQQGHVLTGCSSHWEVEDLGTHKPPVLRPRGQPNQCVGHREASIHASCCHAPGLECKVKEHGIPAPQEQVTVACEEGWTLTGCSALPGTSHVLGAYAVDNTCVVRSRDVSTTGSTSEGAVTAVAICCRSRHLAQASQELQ

IC50 [nM] | Maximum % inhibition [%] | Binder
0.04 | 75 | B1
2.2 | – | B2
1.4 | 49 | B3
1.1 | 46 | B4
1.8 | 28 | B5
5.4 | 83 | B6
